From patent US20210180049A1 (CHUGAI SEIYAKU KABUSHIKI KAISHA, priority 2013, published 2021)

What was measured:
[1] = competitive phage ELISA with ATP; assay type: binding; conditions: ATP from equal amount up to 10000 times that of the antigen
Procedure: ATNLSA1-4_D12 and PF1 were each diluted with TBS and subjected to ELISA by the following procedure.
A StreptaWell 96 microtiter plate (Roche) was coated at room temperature for one hour with 100 μl of TBS containing biotin-labeled antigens (a mixture of 5′-adenosine-PEG-biotin and ATP-PEG-biotin). After the antigens were removed by washing each well of the plate with TBST, the wells were blocked with 250 μl of 2% skim milk/TBS for one hour or more. 2% skim milk/TBS was removed, and then the prepared, purified phages were added to each well. The plate was allowed to stand at room temperature for one hour to allow binding of the antibody-displaying phages to the antigens in each well. […] For the competition of the immobilized antigen with ATP, the plate was allowed to stand at room temperature for one hour. Then, after TBST wash, an HRP-conjugated anti-M13 antibody (Amersham Pharmacia Biotech) diluted with TBS was added to each well. The plate was incubated for one hour. Following TBST wash, the TMB single solution (ZYMED) was added to each well. The chromogenic reaction in the solution of each well was terminated by adding sulfuric acid. Then, the developed color was assessed by measuring absorbance at 450 nm.

[2] = SPR (Biacore T200) binding of humanized SMB0002 to ADP; conditions: Biacore T200, 25° C., 2 mM MgCl2; read-out: KD of humanized SMB0002 toward ADP
Procedure: (§1) Binding of humanized SMB0002 to adenosine and AMP was measured and analyzed by a method using Biacore T200 (GE Healthcare). Protein A (Invitrogen) immobilized in an appropriate amount onto a Sensor chip CM5 (GE Healthcare) by the amine coupling method was allowed to capture the antibody of interest, and the interaction with the antigen adenosine, AMP, ADP, or ATP was observed. The running buffer used was 50 mM Tris-HCl, 150 mM NaCl, 0.02% (w/v) Tween 20, pH 7.6, for adenosine and AMP, and 50 mM Tris-HCl, 150 mM NaCl, 0.02% (w/v) Tween 20, 2 mM MgCl2, pH 7.6, for ADP and ATP. All measurements were carried out at 25° C. The antigens were diluted with the running buffer.
(§2) Then, the running buffer was run at a flow rate of 30 μL/min for five minutes, and dissociation of the antigens from the antibody was observed. Next, 10 mM glycine-HCl, pH 1.5, was added at a flow rate of 30 μL/min for 30 seconds to regenerate the sensor chip. Kinetic parameters such as the association rate constant ka (1/Ms) and the dissociation rate constant kd (l/s) were calculated based on the sensorgrams obtained by the measurements. The dissociation constant KD (M) was calculated from these constants. Each parameter was calculated using Biacore T200 Evaluation Software (GE Healthcare).

[3] = SPR (Biacore T200) binding of humanized SMB0002 to ATP; conditions: Biacore T200, 25° C., 2 mM MgCl2; read-out: KD of humanized SMB0002 toward ATP
Procedure: as §1, §2

[4] = SPR (Biacore T200) binding of humanized SMB0002 and its variants to adenosine; conditions: Biacore T200, 25° C.; read-out: KD of humanized SMB0002 toward adenosine
Procedure: as §1, §2
(§3) As a result of the measurements, the affinity of each variant toward adenosine and AMP was calculated as KD value. […]

[5] = SPR (Biacore T200) binding of humanized SMB0002 and its variants to AMP; conditions: Biacore T200, 25° C.; read-out: KD of humanized SMB0002 toward AMP
Procedure: as §1, §2, §3

[6] = target: T1, human IL-6 receptor (hIL-6R) (Homo sapiens, UniProt P08887); experiment: IgG ELISA for hIL-6R binding under small molecule conditions of Table 12; conditions: IgG 2.5 μg/mL
T1 sequence (P08887 20-357 limits assumed): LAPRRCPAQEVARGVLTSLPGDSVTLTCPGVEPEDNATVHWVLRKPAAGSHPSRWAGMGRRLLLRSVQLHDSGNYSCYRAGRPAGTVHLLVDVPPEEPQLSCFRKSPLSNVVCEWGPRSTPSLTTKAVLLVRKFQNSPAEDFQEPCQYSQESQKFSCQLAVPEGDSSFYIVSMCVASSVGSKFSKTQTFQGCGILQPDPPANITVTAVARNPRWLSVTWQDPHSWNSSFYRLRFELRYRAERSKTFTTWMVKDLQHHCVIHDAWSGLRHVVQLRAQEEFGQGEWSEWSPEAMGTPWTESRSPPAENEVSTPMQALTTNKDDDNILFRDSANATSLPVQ
Procedure: Three types of obtained antibodies 6RNMSC1-2_F02, 6RNMSC1-3_G02, and GC413 were subjected to ELISA under the nine conditions shown in Table 12. The antigen used was biotin-labeled hIL-6R.
First, a StreptaWell 96 microtiter plate (Roche) was coated with 100 μL of PBS containing biotin-labeled hIL-6R at room temperature for one hour or longer. […] 100 μL of each of the purified IgGs prepared at 2.5 μg/mL using Sample Buffer containing small molecules at the final concentrations shown in Table 12 were added to each well, and the plate was let still at room temperature for one hour to allow each IgG to bind to biotin-labeled hIL-6R present in each well. After washing with Wash Buffer containing small molecules at the final concentrations shown in Table 12, HRP-conjugated anti-human IgG antibody (BIOSOURCE) diluted with Sample Buffer containing the same small molecules was added to each well and the plate was incubated for one hour. After washing with Wash Buffer containing respective small molecules, the chromogenic reaction of TMB single solution (ZYMED) added in each well was terminated by adding sulfuric acid. Then, the color development was measured by absorbance at 450 nm.

[7] = target: T1, human IL-6 receptor (hIL-6R); experiment: phage ELISA for hIL-6R binding in the presence/absence of small molecule cocktail (SC); conditions: absorbance at 450 nm
Procedure: From a single colony of E. coli obtained in (6-1), a phage-containing culture supernatant was collected according to a conventional method (Methods Mol. Biol. (2002) 178, 133-145). […] A StreptaWell 96 microtiter plate (Roche) was coated overnight with 100 μL of TBS containing biotin-labeled hIL-6R. […] After removing 2% skim milk/TBS, purified phages were added to each well of the plate, and the plate was left still at room temperature for one hour to allow antibody-presenting phages to bind to biotin-labeled hIL-6R present in each well in the presence/absence of SC. Each well was washed with TBST or SC/TBST, and HRP-conjugated anti-M13 antibody (Amersham Pharmacia Biotech) diluted with TBS or SC/TBS was added thereto, and the plate was incubated for one hour. After washing with TBST or SC/TBST, the chromogenic reaction of TMB single solution (ZYMED) added in each well was terminated by adding sulfuric acid. Then, the color development was measured by absorbance at 450 nm.

[8] = SPR (Biacore T200) binding of 6RNMSC1-2_F02 and variants to kynurenine; conditions: for Kd / ka for kynurenine / kd for kynurenine: Biacore T200, 15° C., 5% DMSO
Procedure: An appropriate amount of protein A (Invitrogen) was immobilized onto Sensor chip CM4 (GE Healthcare) by the amine coupling method. The antibody of interest was captured thereon, and the antigen kynurenine and derivatives thereof were allowed to interact. The running buffer used was 50 mmol/L Tris-HCl, 150 mmol/L NaCl, 0.02% (w/v) Tween 20, 5% DMSO, pH 7.6. All measurements were carried out at 15° C. The antigens were diluted with the running buffer.
Then, the running buffer was run at a flow rate of 30 μL/min for 60 seconds to observe the dissociation of antigens from the antibody. Kinetic parameters, the association rate constant ka (1/Ms) and the dissociation rate constant kd (l/s), were calculated based on the sensorgrams obtained by the measurements. The dissociation constant KD (M) was calculated from these constants. Each parameter was calculated using Biacore T200 Evaluation Software (GE Healthcare).
(§4) Meanwhile, the type of sensor chip immobilized with Protein A was changed to Sensor chip Series S CM3 (GE Healthcare) to measure some of the variants. When kynurenine dissociation was too fast to determine the dissociation rate constant, a dissociation constant KD (M) was calculated by analysis of equilibrium values based on the degree of binding response during the interaction with each antigen (association phase). In this case also, Biacore T200 Evaluation Software (GE Healthcare) was used to calculate the parameters.
as §4
(§5) When kynurenine dissociation was too fast to determine the dissociation rate constant, the dissociation constant KD (M) was calculated by analysis of equilibrium values based on the degree of binding response when it is interacted with each antigen (association phase). Also in this case, the Biacore T200 Evaluation Software (GE Healthcare) was used to calculate parameters. […] Each variant and its parental antibody F02h011/F021003 were compared in terms of the KD value for kynurenine.
as §5, with “analyzing” for “analysis of”, “sequence” for “antibody”

[9] = Tm measurement by DSC

B1: PF1: hIL-6R-binding clone prepared as a negative control; heavy chain SEQ ID NO: 50, light chain SEQ ID NO: 51 (antibody, V domains shown)
VH: QVQLQESGPGLVKPSETLSLTCAVSGYSISDDHAWSWVRQPPGEGLEWIGYISYSGITNYNPSLKGRVTISRDTSKNQFSLKLSSVTAADTAAYYCARVLARITAMDYWGEGTLVTVSS
VL: DIQMTQSPSSLSASVGDSVTITCQASQDISSYLNWYQQKPGKAPELLIYYGSELHSGVPSRFSGSGSGTDFTFTISSLEAEDAATYYCGQGNRLPYTFGQGTKVEIE
- binding to biotin-labeled antigen with ATP as competitor [1]: not detected regardless of the ATP concentration

B2: humanized SMB0002: heavy chain variable region SEQ ID NO: 85; light chain variable region SEQ ID NO: 86 (antibody, V domains shown)
VH: QVQLVQSGAEVKKPGASVKVSCKVSGIDLTNYAMGWVRQPPGKGLEWIGIIGADSSTWYPSWVKGRFTISKDTSKNQVVLTMTNMDPVDTATYYCARGRFVGYTNAFDPWGQGTLVTVSS
VL: DIQLTQSPSSLSASVGDRVTITCQSSQSVWNNNYLSWYQQKPGQPPKLLIYDASTLASGVPSRFSGSGSGTDFTLTINSLEAEDAATYYCHGSYANSGWYDNAFGGGTEVVVK
- Kd [2]: 79 µM
- Kd [3]: 140 µM
- Kd [4]: 0.0075 µM
- Kd [5]: 35 µM

B3: 6RNMSC1-3_G02: antibody binding hIL-6R in the presence of ATP; heavy chain SEQ ID NO: 34, light chain SEQ ID NO: 35 (antibody, listed as Homo sapiens, V domains shown)
VH: EVQLVQSGGDLVKPGGSLRLSCAASGFTFSNYAMHWVRQAPGKGLEWVAVVSYDGSNKYYADSVKGRFTISRDNSKNTLYLQMNSLRAEDTAVYYCARLVPSSGYPGRFDPWGQGTLVTVSS
VL: NIQMTQSPSSLSASVGDRVTITCRASQSISSSLNWYQQIPGKAPKLLIYAASSLQSGVPSRFSGSGSGTDFTLTISSLQPEDFASYYCQQSYSAWTFGQGTKVEIK
- absorbance under condition 9 (no small molecule) compared to condition 8 (cocktail of all small molecules) ([6]; absorbance at 450 nm): significantly lower
- small molecule in whose presence the antibody binds hIL-6R ([6]; conditions 1-9 of Table 12, absorbance at 450 nm): binds to the antigen hIL-6R in the presence of ATP
- binding activity to the antigen hIL-6R in the presence of a small molecule mixture [7]: having binding activity

B4: F02h011/F021003: 6RNMSC1-2_F02 with framework restored to germline; variable regions SEQ ID NO: 95 and 96 (antibody, V domains shown)
VH: QVQLVQSGAEVKKPGSSVKVSCKASGGTFSSYAISWVRQAPGQGLEWMGGIIPIFGTANYAQKFQGRVTITADESTSTAYMELSSLRSEDTAVYYCARDAPVVARPRGAFDIWGQGTLVTVSS
VL: DIVMTQSPLSLPVTPGEPASISCRSSQSLVHSDGNTYLSWYLQKPGQSPQLLIYEISNRFSGVPDRFSGSGSGTDFTLKISRVEAEDVGVYYCMQATQFPRTFGQGTKVEIK
- kynurenine binding (in words) ([8]; Biacore): retain kynurenine binding
- Kd [8]: 110 µM
- ka for kynurenine [8]: 3664 M⁻¹ s⁻¹
- kd for kynurenine [8]: 0.40 L/s
- Tm [9]: 85.2 °C

B5: F02h011/F021098: F02h011/F021003 with Lch_Ser56Tyr; variable regions SEQ ID NO: 95 and 97 (antibody, V domains shown)
VH: QVQLVQSGAEVKKPGSSVKVSCKASGGTFSSYAISWVRQAPGQGLEWMGGIIPIFGTANYAQKFQGRVTITADESTSTAYMELSSLRSEDTAVYYCARDAPVVARPRGAFDIWGQGTLVTVSS
VL: DIVMTQSPLSLPVTPGEPASISCRSSQSLVHSDGNTYLSWYLQKPGQSPQLLIYEISNRFYGVPDRFSGSGSGTDFTLKISRVEAEDVGVYYCMQATQFPRTFGQGTKVEIK
- Kd [8]: 72 µM
- ka for kynurenine [8]: 3686 M⁻¹ s⁻¹
- kd for kynurenine [8]: 0.26 L/s
